One test addresses T1, CD318 (human, UniProt Q9H5V8 30-836).
T1 construct: whole, on cells
T1 sequence (looked up): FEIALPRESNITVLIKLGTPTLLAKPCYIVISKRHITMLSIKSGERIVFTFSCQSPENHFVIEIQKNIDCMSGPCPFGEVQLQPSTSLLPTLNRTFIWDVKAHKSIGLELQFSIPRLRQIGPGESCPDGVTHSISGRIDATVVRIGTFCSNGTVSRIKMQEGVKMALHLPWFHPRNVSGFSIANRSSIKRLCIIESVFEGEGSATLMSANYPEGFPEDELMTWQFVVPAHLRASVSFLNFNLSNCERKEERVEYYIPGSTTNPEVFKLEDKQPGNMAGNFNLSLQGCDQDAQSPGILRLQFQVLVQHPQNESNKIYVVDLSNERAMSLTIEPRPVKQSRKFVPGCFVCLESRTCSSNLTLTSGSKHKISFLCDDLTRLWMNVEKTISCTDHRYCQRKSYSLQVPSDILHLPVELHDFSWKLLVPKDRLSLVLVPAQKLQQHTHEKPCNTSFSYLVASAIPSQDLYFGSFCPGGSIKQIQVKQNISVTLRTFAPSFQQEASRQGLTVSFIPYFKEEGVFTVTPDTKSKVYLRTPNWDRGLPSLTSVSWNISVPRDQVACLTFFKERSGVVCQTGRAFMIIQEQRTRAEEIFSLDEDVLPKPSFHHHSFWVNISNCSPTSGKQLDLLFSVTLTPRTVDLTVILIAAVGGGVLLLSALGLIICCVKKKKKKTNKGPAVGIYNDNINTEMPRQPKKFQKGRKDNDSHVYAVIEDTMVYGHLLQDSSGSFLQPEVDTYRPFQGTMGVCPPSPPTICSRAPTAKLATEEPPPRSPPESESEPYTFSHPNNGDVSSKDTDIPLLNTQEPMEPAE
The experiment in a line: antibody used for staining of human pancreatic cancer cells (flow cytometry, immunohistochemistry; Example 1); told in words only.

Another test concerns the target T2, TSPAN8 (human, UniProt P19075 1-237).
T2 construct: whole, on cells
T2 sequence (looked up): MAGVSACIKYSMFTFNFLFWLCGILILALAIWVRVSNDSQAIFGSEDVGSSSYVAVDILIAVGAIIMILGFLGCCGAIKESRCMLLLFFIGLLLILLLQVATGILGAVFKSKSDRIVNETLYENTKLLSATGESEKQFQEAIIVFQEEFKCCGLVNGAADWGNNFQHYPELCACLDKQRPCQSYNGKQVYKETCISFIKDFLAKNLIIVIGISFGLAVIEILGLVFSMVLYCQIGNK
The description is as above.

B1: CD318 specific antibody (antibody, V domains shown)
VH: EVQLQQSGAELVRPGALVKLSCKASGFNIKDYYIHWVKQRPEQGLEWIGWIDPENGHTIYDPKFQGKASITADTSSNTAYLQLSSLTSEDTAVYYCARLTGTTYAMDYWGQGTSVTVSS
VL: DIVMTQSHKFMSTSVGDRVSITCKASQDVSTAVAWYQQKSGQSPKLLIYWASTRHTGVPDRFTGSGSGTDYTLTISSVQAEDLALYYCQQHYSTPYTFGGGTKLEIK
notes: also called CD318 VH
On to B1, for which the binding result with CD318 is recorded as “binds”.

B2: TSPAN8 specific antibody (antibody, V domains shown)
VH: EVKLLESGGGLVQPGGSMRLSCAASGFTFTDFYMNWIRQPAGKAPEWLGFIRNKASGYTTEYNPSVKGRFTISRDNTQNMLYLQMNTLRAEDTATYYCARAHSYYGYDYFDYWGQGVMVTVSS
VL: DIQMTQSPASLSASLEEIVTITCQASQDIGNWLSWYQQKPGKSPQLLIYGATSLADGVPSRFSGSRSGTQYSLKISRLQVEDIRIYYCLQAYSAPWTFGGGTKLELK
notes: also called TSPAN8 VH
With B2, the binding result with TSPAN8 is recorded as “binds”.

The values above are taken from US20200282035A1 (MILTENYI BIOTEC B V, published 2020).
